Reference: patent US20230048633A1

Target: recombinant HLA-E-His protein (human) (UniProt P13747)
Assay: ELISA: the chimeric protein itself was coated in a 1:3 titration (the x axis is its coating concentration), HLA-E-His (Novus NBP2-47435PEP) was added, detected with Anti-6x-His-HRP (Abcam Ab1187)

Row | EC50 (read off the curve) | Substance
1 | 5 µg/mL | hTGFBR2-Fc-NKG2A chimeric protein (Fc fusion)
2 | 6 µg/mL | hSLAMF6-Fc-NKG2A chimeric protein (from UniProt Q96DU3 22-226; P26715 94-233) (Fc fusion)
